Data taken from US20100166741A1 (Genentech, published 2010).

T1: mouse FcγRI extracellular domain, His-tagged GST fusion (mouse, UniProt P26151 25-297)
T1 construct: extracellular domain; also called Mouse I; mFcγRI; not shown: His tag and GST
T1 sequence (looked up): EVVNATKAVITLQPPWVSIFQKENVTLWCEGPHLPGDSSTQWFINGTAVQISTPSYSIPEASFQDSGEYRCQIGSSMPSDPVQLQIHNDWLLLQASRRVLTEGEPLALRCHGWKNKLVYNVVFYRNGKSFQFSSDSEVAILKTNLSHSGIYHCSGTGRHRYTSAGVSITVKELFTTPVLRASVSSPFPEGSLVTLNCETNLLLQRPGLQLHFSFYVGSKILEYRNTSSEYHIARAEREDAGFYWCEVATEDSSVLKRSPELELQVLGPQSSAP

T2: mouse FcγRIII extracellular domain, His-tagged GST fusion (mouse, UniProt P08508 31-215)
T2 construct: extracellular domain; also called Mouse III; not shown: His tag and GST
T2 sequence (looked up): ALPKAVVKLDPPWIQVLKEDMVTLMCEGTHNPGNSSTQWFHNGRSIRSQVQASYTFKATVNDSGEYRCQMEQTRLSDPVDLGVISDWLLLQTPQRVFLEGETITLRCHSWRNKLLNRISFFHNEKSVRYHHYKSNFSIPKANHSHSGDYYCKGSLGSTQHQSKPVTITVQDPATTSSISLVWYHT

T3: mouse FcγRII extracellular domain, His-tagged GST fusion (mouse, UniProt P08101 30-210)
T3 construct: extracellular domain; also called Mouse II; not shown: His tag and GST
T3 sequence (looked up): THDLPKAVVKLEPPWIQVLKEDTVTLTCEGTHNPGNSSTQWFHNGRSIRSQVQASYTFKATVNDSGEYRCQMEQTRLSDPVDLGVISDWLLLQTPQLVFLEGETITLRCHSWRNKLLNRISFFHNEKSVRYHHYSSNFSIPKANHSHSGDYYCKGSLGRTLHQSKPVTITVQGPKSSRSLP

T4: human FcγRIIb extracellular domain, His-tagged GST fusion (human, UniProt P31994 43-217)
T4 construct: extracellular domain; also called hFcgRIIb; CD32B; not shown: C-terminal Gly/His6/GST tag
T4 sequence (looked up): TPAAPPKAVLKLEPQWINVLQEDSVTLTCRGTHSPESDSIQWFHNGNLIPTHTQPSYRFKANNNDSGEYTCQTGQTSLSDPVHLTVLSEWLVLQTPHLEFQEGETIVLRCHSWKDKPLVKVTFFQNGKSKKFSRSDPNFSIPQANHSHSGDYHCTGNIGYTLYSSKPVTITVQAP

T5: human FcγRIIa extracellular domain, His-tagged GST fusion (human, UniProt P12318 34-217)
T5 construct: extracellular domain; also called hFcgRIIa; CD32A; not shown: C-terminal Gly/His6/GST tag
T5 sequence (looked up): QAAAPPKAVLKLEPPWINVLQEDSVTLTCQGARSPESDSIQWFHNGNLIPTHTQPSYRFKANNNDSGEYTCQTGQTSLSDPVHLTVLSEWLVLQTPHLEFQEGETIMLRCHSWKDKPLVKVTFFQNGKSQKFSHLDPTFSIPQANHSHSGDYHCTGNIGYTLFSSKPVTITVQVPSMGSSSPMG


How the values were obtained:
[1] = biological target: T6, human FcγRI extracellular domain, His-tagged GST fusion (human, UniProt P12314 16-292); assay: Fcγ receptor ELISA; bar = fold change in binding relative to Herceptin (EC50 Herceptin/EC50 sample), log axis 0.1-100
T6 construct: extracellular domain; also called hFcgRI; FcγRIA; not shown: C-terminal Gly/His6/GST tag

[2] = biological target: T1, mouse FcγRI extracellular domain, …; assay: as above
Description: (§1) Binding of the variant antibodies to Fcγ receptors was evaluated using an ELISA-based assay. […] Dilutions of the variant antibodies were added and allowed to bind followed by washing of the wells to remove unbound antibody. […] Bound antibody was detected with an HRP-coupled, Fab′2 fragment of a goat anti-huFab′2 antibody.

[3] = biological target: T2, mouse FcγRIII extracellular domain, …; assay: as above
Description: as §1

[4] = biological target: T7, human FcγRIIIa (F158) extracellular domain, His-tagged GST fusion (human, UniProt P08637 17-208); assay: as above
T7 construct: extracellular domain; also called hFcgRIII (F158); FcγRIII (F158 allele); not shown: C-terminal Gly/His6/GST tag

[5] = biological target: T3, mouse FcγRII extracellular domain, …; assay: as above
Description: as §1

[6] = biological target: T6, human FcγRI extracellular domain, …; assay: ELISA, captured FcγR-GST, monomeric IgG
Description: (§2) FcγRs were expressed as recombinant fusion proteins of the extracellular domain of the receptor alpha chains with gly/his6/glutathione-s-transferase (GST). Assay plates coated with anti-GST and blocked with BSA were used to capture each FcγR. Plates were washed with wash buffer (0.05% polysorbate 20 in PBS, pH 7.4) after each incubation. […] Bound antibody was detected with the horseradish peroxidase (HRP)-conjugated F(ab′)2 fragment of a goat anti-human IgG F(ab′)₂ (Jackson ImmunoResearch; West Grove, Pa.). Plates were developed with tetramethylbenzidine (TMB) (KPL, Inc.; Gaithersburg, Md.) as the substrate. Absorbance was measured at a wavelength of 450 nm with a reference of 650 nm. Mean absorbance values from duplicate wells were plotted as a function of antibody concentration. Data were fit to a four-parameter equation to determine the concentration that yields 50% of maximum binding to each FcγR (EC₅₀) for each antibody.

[7] = biological target: T4, human FcγRIIb extracellular domain, …; assay: ELISA, captured FcγR-GST, multimeric IgG
Description: as §2

[8] = biological target: T8, human FcγRIIIa (V158) extracellular domain, His-tagged GST fusion (human, UniProt P08637 17-208); assay: ELISA, captured FcγR-GST, multimeric IgG
T8 construct: extracellular domain; also called hFcgRIII (V158); FcγRIII (V158 allele); not shown: C-terminal Gly/His6/GST tag

[9] = biological target: T5, human FcγRIIa extracellular domain, …; assay: ELISA, captured FcγR-GST, multimeric IgG
Description: as §2

[10] = biological target: T7, human FcγRIIIa (F158) extracellular …; assay: ELISA, captured FcγR-GST, multimeric IgG
Description: as §2

T7 sequence (P08637 17-208): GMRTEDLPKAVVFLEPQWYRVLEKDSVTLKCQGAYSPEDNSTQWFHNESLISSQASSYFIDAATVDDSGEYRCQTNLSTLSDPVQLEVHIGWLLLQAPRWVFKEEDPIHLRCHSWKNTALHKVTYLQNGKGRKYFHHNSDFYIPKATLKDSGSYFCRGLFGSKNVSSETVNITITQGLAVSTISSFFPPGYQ
T8 sequence (P08637 17-208 F176V): as the sequence (P08637 17-208) above, with F160V counted along it

Row | binding result [1] | binding result [2] | binding result [3] | binding result [4] | binding result [5] | EC50 [6] [ng/mL] | EC50 [7] [µg/mL] | EC50 [8] [µg/mL] | EC50 [9] [µg/mL] | EC50 [10] [µg/mL] | Binder
1 | binds | binds | binds | binds | binds | – | – | – | – | – | V3(5) (antibody, human IgG1, kappa, also called V3-46s S298A/K326A/E333A/K334A) heavy chain: EVQLVESGGGLVQPGGSLRLSCAASGFTISSSSIHWVRQAPGKGLEWVAWVLPSVGFTDYADSVKGRFTISADTSKNTAYLQMNSLRAEDTAVYYCARRVCYNRLGVCAGGMDYWGQGTLVTVSSASTKGPSVFPLAPSSKSTSGGTAALGCLVKDYFPEPVTVSWNSGALTSGVHTFPAVLQSSGLYSLSSVVTVPSSSLGTQTYICNVNHKPSNTKVDKKVEPKSCDKTHTCPPCPAPELLGGPSVFLFPPKPKDTLMISRTPEVTCVVVDVSHEDPEVKFNWYVDGVEVHNAKTKPREEQYNATYRVVSVLTVLHQDWLNGKEYKCKVSNAALPAPIAATISKAKGQPREPQVYTLPPSREEMTKNQVSLTCLVKGFYPSDIAVEWESNGQPENNYKTTPPVLDSDGSFFLYSKLTVDKSRWQQGNVFSCSVMHEALHNHYTQKSLSLSPG light chain: DIQMTQSPSSLSASVGDRVTITCRASQDVSTAVAWYQQKPGKAPKLLIYSASFLYSGVPSRFSGSGSGTDFTLTISSLQPEDFATYYCQQSQISPPTFGQGTKVEIKRTVAAPSVFIFPPSDEQLKSGTASVVCLLNNFYPREAKVQWKVDNALQSGNSQESVTEQDSKDSTYSLSSTLTLSKADYEKHKVYACEVTHQGLSSPVTKSFNRGEC
2 | – | binds | binds | – | binds | 1.58 | 1.02 | 0.28 | 0.3 | 1.52 | V3-46s IgG (antibody, also called HV3-46S; HV3-46S-Bulk) heavy: not shown light: DIQMTQSPSSLSASVGDRVTITCRASQDVSTAVAWYQQKPGKAPKLLIYSASFLYSGVPSRFSGSGSGTDFTLTISSLQPEDFATYYCQQSQISPPTFGQGTKVEIKRTVAAPSVFIFPPSDEQLKSGTASVVCLLNNFYPREAKVQWKVDNALQSGNSQESVTEQDSKDSTYSLSSTLTLSKADYEKHKVYACEVTHQGLSSPVTKSFNRGEC
